Where two headings read alike, the source gives them in different places. Where only a bound is given, the exact number is not on record here.

Targets include human Nav1.7 (human) (UniProt Q15858); human Nav1.5 (human) (UniProt Q14524); human Nav1.3 (human) (UniProt Q9NY46).
Test in all cases: cell-based or functional assay
Experiment [1] concerns the target human voltage-gated sodium channel Nav1.7 (human) (UniProt Q15858).
The target in experiment [2] is human voltage-gated sodium channel Nav1.5 (human) (UniProt Q14524).
Experiment [3] has as its target human voltage-gated sodium channel Nav1.3 (human) (UniProt Q9NY46).
Experiment [4] has as its target human Nav1.7 voltage-gated sodium channel (human) (UniProt Q15858).
Experiment [5] has the same target. This is another data set of the same source.
In experiment [6] the target is human Nav1.5 voltage-gated sodium channel (human) (UniProt Q14524).
Chain of human Nav1.5 voltage-gated sodium channel (human) (Q14524 whole entry): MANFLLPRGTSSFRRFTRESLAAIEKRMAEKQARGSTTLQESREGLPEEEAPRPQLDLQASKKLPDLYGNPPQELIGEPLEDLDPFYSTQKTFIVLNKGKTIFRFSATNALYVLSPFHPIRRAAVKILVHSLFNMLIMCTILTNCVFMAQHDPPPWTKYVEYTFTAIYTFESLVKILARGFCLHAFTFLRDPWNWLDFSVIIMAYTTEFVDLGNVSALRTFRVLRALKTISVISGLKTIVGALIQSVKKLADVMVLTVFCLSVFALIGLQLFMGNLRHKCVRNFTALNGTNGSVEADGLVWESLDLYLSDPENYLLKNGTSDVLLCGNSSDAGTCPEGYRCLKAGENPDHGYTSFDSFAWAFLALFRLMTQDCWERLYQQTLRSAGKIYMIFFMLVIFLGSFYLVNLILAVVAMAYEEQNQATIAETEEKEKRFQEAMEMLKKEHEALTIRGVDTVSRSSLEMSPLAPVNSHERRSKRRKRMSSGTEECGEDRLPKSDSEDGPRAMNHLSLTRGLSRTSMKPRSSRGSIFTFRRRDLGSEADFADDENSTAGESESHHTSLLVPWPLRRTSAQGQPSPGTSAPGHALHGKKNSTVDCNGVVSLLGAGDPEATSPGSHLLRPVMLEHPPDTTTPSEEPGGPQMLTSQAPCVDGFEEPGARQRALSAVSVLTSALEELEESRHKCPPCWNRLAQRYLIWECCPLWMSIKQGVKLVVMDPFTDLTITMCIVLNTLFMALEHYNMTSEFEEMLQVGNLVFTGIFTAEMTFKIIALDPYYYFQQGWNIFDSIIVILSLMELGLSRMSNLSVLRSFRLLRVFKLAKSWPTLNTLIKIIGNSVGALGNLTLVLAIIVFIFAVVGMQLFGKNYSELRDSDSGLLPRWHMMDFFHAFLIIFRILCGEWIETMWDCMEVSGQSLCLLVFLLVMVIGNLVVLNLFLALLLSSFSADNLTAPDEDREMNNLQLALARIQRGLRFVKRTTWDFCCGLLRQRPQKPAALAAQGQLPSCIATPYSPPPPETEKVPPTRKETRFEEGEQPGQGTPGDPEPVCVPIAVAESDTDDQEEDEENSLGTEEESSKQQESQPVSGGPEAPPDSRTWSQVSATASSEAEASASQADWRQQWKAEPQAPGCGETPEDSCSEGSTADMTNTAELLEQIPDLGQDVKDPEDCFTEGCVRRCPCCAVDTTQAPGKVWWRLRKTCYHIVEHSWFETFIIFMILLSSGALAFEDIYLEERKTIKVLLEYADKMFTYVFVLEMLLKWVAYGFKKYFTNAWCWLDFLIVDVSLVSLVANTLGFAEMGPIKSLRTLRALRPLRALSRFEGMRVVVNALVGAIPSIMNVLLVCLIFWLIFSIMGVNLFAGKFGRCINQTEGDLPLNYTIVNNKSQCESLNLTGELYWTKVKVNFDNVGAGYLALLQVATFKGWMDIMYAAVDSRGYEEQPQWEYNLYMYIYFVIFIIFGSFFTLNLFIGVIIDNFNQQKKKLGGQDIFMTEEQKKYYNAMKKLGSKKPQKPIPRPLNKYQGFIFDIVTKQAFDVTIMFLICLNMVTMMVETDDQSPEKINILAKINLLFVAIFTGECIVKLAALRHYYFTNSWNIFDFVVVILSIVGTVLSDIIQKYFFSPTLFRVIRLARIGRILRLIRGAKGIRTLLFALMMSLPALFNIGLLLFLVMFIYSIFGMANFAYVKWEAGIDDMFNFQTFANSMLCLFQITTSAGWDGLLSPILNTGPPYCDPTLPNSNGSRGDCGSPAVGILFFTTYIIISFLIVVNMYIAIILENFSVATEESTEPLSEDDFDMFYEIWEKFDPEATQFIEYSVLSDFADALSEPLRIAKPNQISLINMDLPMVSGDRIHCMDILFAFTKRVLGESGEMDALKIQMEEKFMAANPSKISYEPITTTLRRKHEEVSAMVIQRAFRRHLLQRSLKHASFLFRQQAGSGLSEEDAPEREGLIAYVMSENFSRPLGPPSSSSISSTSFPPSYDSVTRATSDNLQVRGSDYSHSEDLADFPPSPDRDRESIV
Experiment [7] concerns the target human Nav1.3 voltage-gated sodium channel (human) (UniProt Q9NY46).
Experiment [8] addresses human Nav1.4 voltage-gated sodium channel (human) (UniProt P35499).
In experiment [9] the target is human voltage-gated sodium channel Nav1.7 (human) (UniProt Q15858). This is another data set of the same source.
Experiment [10] concerns the target human voltage-gated sodium channel Nav1.5 (human) (UniProt Q14524). The source holds these as a separate data set.
Experiment [11] concerns the target human voltage-gated sodium channel Nav1.3 (human) (UniProt Q9NY46). The source holds these as a separate data set.
Experiment [12] addresses human voltage-gated sodium channel Nav1.7 (human) (UniProt Q15858). The source holds these as a separate data set.
The target of experiment [13] is human voltage-gated sodium channel Nav1.5 (human) (UniProt Q14524). The source holds these as a separate data set.
Experiment [14] concerns the target human voltage-gated sodium channel Nav1.3 (human) (UniProt Q9NY46). This is another data set of the same source.
Experiment [15] deals with human Nav1.5 voltage-gated sodium channel (human) (UniProt Q14524). The source holds these as a separate data set.
The target in experiment [16] is human Nav1.3 voltage-gated sodium channel (human) (UniProt Q9NY46). The source holds these as a separate data set.
Chain of human Nav1.3 voltage-gated sodium channel (human) (Q9NY46 whole entry): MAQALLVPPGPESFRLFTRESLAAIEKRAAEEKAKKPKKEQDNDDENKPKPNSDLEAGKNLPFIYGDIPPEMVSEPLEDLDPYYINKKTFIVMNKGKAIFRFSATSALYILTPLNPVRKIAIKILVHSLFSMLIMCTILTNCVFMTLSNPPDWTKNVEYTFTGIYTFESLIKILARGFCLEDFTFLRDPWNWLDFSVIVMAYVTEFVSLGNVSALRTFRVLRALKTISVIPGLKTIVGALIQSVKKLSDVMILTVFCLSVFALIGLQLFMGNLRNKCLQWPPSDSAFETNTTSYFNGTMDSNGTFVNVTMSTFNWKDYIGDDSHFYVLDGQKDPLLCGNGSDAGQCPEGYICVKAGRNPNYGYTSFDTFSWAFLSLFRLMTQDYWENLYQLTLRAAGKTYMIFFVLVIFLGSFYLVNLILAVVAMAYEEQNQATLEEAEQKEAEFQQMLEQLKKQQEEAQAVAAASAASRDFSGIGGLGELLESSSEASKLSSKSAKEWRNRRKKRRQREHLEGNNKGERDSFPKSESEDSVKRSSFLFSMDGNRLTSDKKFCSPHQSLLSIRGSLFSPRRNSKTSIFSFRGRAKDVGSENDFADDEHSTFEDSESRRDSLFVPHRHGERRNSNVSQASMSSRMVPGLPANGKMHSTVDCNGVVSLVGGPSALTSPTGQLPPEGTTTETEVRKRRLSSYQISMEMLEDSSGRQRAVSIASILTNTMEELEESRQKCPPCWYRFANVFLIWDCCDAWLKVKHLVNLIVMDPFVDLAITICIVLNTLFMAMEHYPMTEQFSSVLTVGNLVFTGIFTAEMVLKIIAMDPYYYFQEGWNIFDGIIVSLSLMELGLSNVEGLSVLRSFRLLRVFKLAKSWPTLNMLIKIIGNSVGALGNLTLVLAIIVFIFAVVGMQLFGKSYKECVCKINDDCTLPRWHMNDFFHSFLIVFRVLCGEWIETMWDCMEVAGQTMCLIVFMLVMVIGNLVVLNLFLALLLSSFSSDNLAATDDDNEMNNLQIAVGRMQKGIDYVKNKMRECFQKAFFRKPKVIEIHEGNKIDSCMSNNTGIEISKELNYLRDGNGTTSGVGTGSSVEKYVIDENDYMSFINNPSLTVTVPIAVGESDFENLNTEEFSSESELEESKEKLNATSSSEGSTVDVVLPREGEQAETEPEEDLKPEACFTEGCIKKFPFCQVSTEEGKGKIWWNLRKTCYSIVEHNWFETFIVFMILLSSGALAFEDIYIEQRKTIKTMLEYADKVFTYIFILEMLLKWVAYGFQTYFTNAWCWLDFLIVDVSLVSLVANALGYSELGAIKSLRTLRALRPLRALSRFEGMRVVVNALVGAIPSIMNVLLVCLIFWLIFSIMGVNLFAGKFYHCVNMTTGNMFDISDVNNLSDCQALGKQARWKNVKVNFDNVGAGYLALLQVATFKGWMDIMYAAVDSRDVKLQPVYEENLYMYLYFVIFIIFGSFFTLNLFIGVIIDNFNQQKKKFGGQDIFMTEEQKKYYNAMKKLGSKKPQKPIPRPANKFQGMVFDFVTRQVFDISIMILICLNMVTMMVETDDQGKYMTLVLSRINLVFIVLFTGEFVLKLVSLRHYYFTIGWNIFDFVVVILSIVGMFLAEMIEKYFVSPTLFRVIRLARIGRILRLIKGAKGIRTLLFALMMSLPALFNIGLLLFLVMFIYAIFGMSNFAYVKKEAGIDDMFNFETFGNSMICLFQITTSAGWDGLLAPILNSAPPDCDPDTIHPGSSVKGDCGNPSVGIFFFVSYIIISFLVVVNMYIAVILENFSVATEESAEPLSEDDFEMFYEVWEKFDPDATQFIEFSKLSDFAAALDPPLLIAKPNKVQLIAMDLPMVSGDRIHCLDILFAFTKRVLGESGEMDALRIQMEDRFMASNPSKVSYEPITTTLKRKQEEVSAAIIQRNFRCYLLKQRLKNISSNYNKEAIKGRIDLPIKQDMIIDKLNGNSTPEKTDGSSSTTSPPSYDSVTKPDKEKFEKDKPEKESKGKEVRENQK
Experiment [17] has as its target human ERG (hERG) potassium channel (human) (UniProt Q12809).
The target of experiment [18] is human voltage-gated sodium channel Nav1.3 (human) (UniProt Q9NY46). The source holds these as a separate data set.
Chain of human voltage-gated sodium channel Nav1.3 (human) (Q9NY46 whole entry): as above
Experiment [19] deals with human voltage-gated sodium channel Nav1.7 (human) (UniProt Q15858). The source holds these as a separate data set.
Experiment [20] concerns the target human voltage-gated sodium channel Nav1.5 (human) (UniProt Q14524). The source holds these as a separate data set.
Experiment [21] concerns the target human voltage-gated sodium channel Nav1.3 (human) (UniProt Q9NY46). The source holds these as a separate data set.
The target in experiment [22] is human voltage-gated sodium channel Nav1.7 (human) (UniProt Q15858). This is another data set of the same source.
Experiment [23] has as its target human voltage-gated sodium channel Nav1.5 (human) (UniProt Q14524). This is another data set of the same source.
Experiment [24] concerns the target human voltage-gated sodium channel Nav1.3 (human) (UniProt Q9NY46). The source holds these as a separate data set.
Experiment [25] deals with human voltage-gated sodium channel Nav1.7 (human) (UniProt Q15858). This is another data set of the same source.
Experiment [26] concerns the target human voltage-gated sodium channel Nav1.5 (human) (UniProt Q14524). This is another data set of the same source.
The target of experiment [27] is human voltage-gated sodium channel Nav1.3 (human) (UniProt Q9NY46). This is another data set of the same source.
Experiment [28] addresses human voltage-gated sodium channel Nav1.4 (human) (UniProt P35499).

Chain of human Nav1.3 (human) (Q9NY46 whole entry): as above

In experiment [1], [D-Phe34]GpTx-1(1-34) (peptide) gave an IWQ Use Nav1.7 of 0.98 µM. This substance gave an IWQ Use Nav1.5 in experiment [2] of 20.7 µM. The substance further gave an IWQ Use Nav1.3 in [3] of 0.52 µM.

[D-Phe5]GpTx-1(1-34) (peptide) returned an IWQ Use Nav1.7 (µM): IC50 of peak inward current, IonWorks Quattro in experiment [4] of 1.23 µM.

Consider GpTx-2 (peptide), for which the IWQ Use Nav1.7 in experiment [5] was 4.34 µM. In experiment [6], this substance displayed an IWQ Use Nav1.5 of 7.21 µM. For the same substance, the IWQ Use Nav1.3 in [7] was determined as 1.15 µM.

For GpTx-4 (peptide), the IWQ Use Nav1.7 in experiment [5] came to 9.25 µM. The substance further returned an IWQ Use Nav1.4 in [8] of 11 µM. This substance registered an IWQ Use Nav1.5 in [6] of 10.4 µM. The IWQ Use Nav1.3 in experiment [7] came out at 4.92 µM.

In turn, GpTx-6(1-34) (peptide) had an IWQ Use Nav1.7 in experiment [5] of 1.3 µM. Also, the IWQ Use Nav1.4 in [8] is 4.1 µM. This substance also yielded an IWQ Use Nav1.5 in experiment [6] of 7.3 µM. The substance also had an IWQ Use Nav1.3 in experiment [7] of 0.54 µM.

Regarding “[Ala5;Phe6;Leu26;Arg28]GpTx-1(1-34) (peptide)”, in experiment [9], the Nav1.7 Use IC50 (PatchXpress electrophysiology) amounted to 0.002 µM. The Nav1.5 Use IC50 (PatchXpress electrophysiology) in [10] is more than 10 µM. Further, in experiment [11], the Nav1.3 Use IC50 (PatchXpress electrophysiology) came to 0.008 µM. In experiment [5], this substance registered an IWQ Use Nav1.7 (µM); IC50 of peak inward current, IonWorks Quattro of 0.05 µM. For the same substance, the IWQ Use Nav1.4 (µM); IC50 of peak inward current, IonWorks Quattro in experiment [8] came to 5 µM. Besides, the IWQ Use Nav1.5 (µM); IC50 of peak inward current, IonWorks Quattro in experiment [6] came to 5 µM. The IWQ Use Nav1.3 (µM); IC50 of peak inward current, IonWorks Quattro in [7] turned out to be 0.04 µM.

As to GpTx-1(1-34) (peptide), the IWQ Use Nav1.7 in [12], in experiment [4], in experiment [9], in experiment [19], in [5] and in [1] was 0.08 µM throughout. Also, the IWQ Use Nav1.5 in experiment [13], in experiment [15], in experiment [10], in experiment [20], in experiment [6] and in experiment [2] was 13.1 µM throughout. In addition, the IWQ Use Nav1.3 in experiment [14], in [11], in experiment [16], in experiment [18], in [21] and in [7] was 0.08 µM in each case. In experiment [3], this substance displayed an IWQ Use Nav1.3 of 0.08 µM. The IC50, peak inward hNav1.7 current, whole cell patch clamp, cells held at -140 mV in [4] was determined as 7.4 nM. In addition, in experiment [4], the IWQ Use Nav1.7 (µM): IC50 of peak inward current block, IonWorks Quattro stood at 0.08 µM. The IWQ Use Nav1.7 (µM); IC50 of peak inward current, IonWorks Quattro in [4], in experiment [9] and in experiment [22] was 0.08 µM each time. The substance further yielded an inhibition of NaV1.7 activity, IonWorks Quattro, venom sub-fraction 11 in experiment [4] of more than 90%. For the same substance, the IWQ Use Nav1.7 (µM) [IC50, IonWorks Quattro electrophysiology] in the experiment with human Nav1.7 (human) stood at 0.08 µM. In the experiment with human Nav1.5 (human), this substance gave an IWQ Use Nav1.5 (µM) [IC50, IonWorks Quattro electrophysiology] of 13.1 µM. The IWQ Use Nav1.7 (µM) (IC50, IonWorks Quattro population patch clamp) in experiment [9] and in experiment [25] was 0.08 µM each time. In experiment [9], this substance had an IWQ Use Nav1.7 (µM): IC50 of peak inward current, IonWorks Quattro of 0.08 µM. In [9], this substance showed a Nav1.7 Use IC50 (PatchXpress whole cell patch clamp) of 5 nM. The substance further showed a Nav1.7 Use IC50 (µM); PatchXpress whole cell patch clamp electrophysiology in experiment [9] of 0.005 µM. The IC50, hNav1.5 current, PatchXpress counterscreen in [15] was 9800 nM. The substance further yielded an IC50, peak inward hNav1.5 current, whole cell patch clamp, cells held at -140 mV in experiment [15] of 8900 nM. The substance also had an IWQ Use Nav1.5 (µM): IC50 of peak inward current block, IonWorks Quattro in experiment [15] of 13.1 µM. The IWQ Use Nav1.5 (µM); IC50 of peak inward current, IonWorks Quattro in experiment [15], in experiment [10] and in experiment [23] was 13.1 µM each time. For the same substance, the IWQ Use Nav1.5 (µM) (IC50, IonWorks Quattro population patch clamp) in [10] and in experiment [26] was 13.1 µM each time. In experiment [10], this substance displayed an IWQ Use Nav1.5 (µM): IC50 of peak inward current, IonWorks Quattro of 13.1 µM. This substance also had a Nav1.5 Use IC50 (PatchXpress whole cell patch clamp) in [10] of more than 10000 nM. This substance also displayed an IWQ Use Nav1.3 (µM) [IC50, IonWorks Quattro electrophysiology] with human Nav1.3 (human) of 0.08 µM. Besides, the IWQ Use Nav1.3 (µM) (IC50, IonWorks Quattro population patch clamp) in experiment [11] and in experiment [27] was 0.08 µM throughout. Besides, the IWQ Use Nav1.3 (µM): IC50 of peak inward current, IonWorks Quattro in experiment [11] came out at 0.08 µM. Also, the IWQ Use Nav1.3 (µM); IC50 of peak inward current, IonWorks Quattro in [11], in experiment [16] and in experiment [24] was 0.08 µM in each case. In experiment [11], this substance came in with a Nav1.3 Use IC50 (PatchXpress whole cell patch clamp) of 10 nM. Also, the IC50, peak inward hNav1.3 current, whole cell patch clamp, cells held at -140 mV in experiment [16] came out at 16.8 nM. The same substance yielded an IWQ Use Nav1.3 (µM): IC50 of peak inward current block, IonWorks Quattro in experiment [16] of 0.08 µM. The same substance returned an IC50, hERG current, PatchXpress counterscreen in experiment [17] of more than 10000 nM.

The substance Huwentoxin-I (peptide) came in with a Nav1.4 Use IC50 (PatchXpress whole cell patch clamp) in experiment [28] of 24900 nM. In [10], this substance registered a Nav1.5 Use IC50 (PatchXpress whole cell patch clamp) of more than 30000 nM. For the same substance, in experiment [11], the Nav1.3 Use IC50 (PatchXpress whole cell patch clamp) was 905 nM.

In [15], Ac-GpTx-1(1-34) (peptide) returned a Nav1.5 Use IC50 (µM), PatchXpress electrophysiology of more than 10 µM.

As to GpTx-1(1-34)-FreeAcid (peptide), the IWQ Use Nav1.5 (µM) (IC50, IonWorks Quattro population patch clamp) in [10] came to 9.44 µM. The substance also gave an IWQ Use Nav1.3 (µM) (IC50, IonWorks Quattro population patch clamp) in experiment [11] of 0.54 µM.

Turning to GpTx-6(1-35) (peptide), the IWQ Use Nav1.7 in [5] was 9.6 µM. Moreover, the IWQ Use Nav1.4 in experiment [8] amounted to 17.4 µM. In experiment [6], the IWQ Use Nav1.5 came out at 14.6 µM. In experiment [7], this substance had an IWQ Use Nav1.3 of 1.7 µM.

Take Huwentoxin-IV (peptide): the Nav1.4 Use IC50 (PatchXpress whole cell patch clamp) in [28] worked out at 4500 nM. Also, the Nav1.7 Use IC50 (PatchXpress whole cell patch clamp) in experiment [9] was 32 nM. In experiment [11], this substance registered a Nav1.3 Use IC50 (PatchXpress whole cell patch clamp) of 22 nM.

On to ProTxII (peptide), for which, in experiment [28], the Nav1.4 Use IC50 (PatchXpress whole cell patch clamp) is 32 nM. The Nav1.7 Use IC50 (PatchXpress whole cell patch clamp) in [9] amounted to 2 nM. Moreover, the Nav1.5 Use IC50 (PatchXpress whole cell patch clamp) in [10] came to 104 nM. In experiment [11], this substance showed a Nav1.3 Use IC50 (PatchXpress whole cell patch clamp) of 15 nM.

Turning to GpTx-3 (peptide), the IWQ Use Nav1.7 in [5] is 8.93 µM. Moreover, the IWQ Use Nav1.4 in experiment [8] stood at 20 µM. For the same substance, the IWQ Use Nav1.5 in experiment [6] worked out at 7.8 µM. Besides, in experiment [7], the IWQ Use Nav1.3 worked out at 9.37 µM.

The values are drawn from patent US20160304570A1.
